{
  "source": "paper PMC11748629",
  "about": "“Unidirectional MCM translocation away from ORC drives origin licensing” (Nature Communications, 2025)",
  "binders": {"B1": {"name": "Mcm7 (natural protein, Saccharomyces cerevisiae)", "chain": "MSAALPSIQLPVDYNNLFNEITDFLVTFKQDTLSSDATRNENEDENLDAENIEQHLLEKGPKYMAMLQKVANRELNSVIIDLDDILQYQNEKFLQGTQADDLVSAIQQNANHFTELFCRAIDNNMPLPTKEIDYKDDVLDVILNQRRLRNERMLSDRTNEIRSENLMDTTMDPPSSMNDALREVVEDETELFPPNLTRRYFLYFKPLSQNCARRYRKKAISSKPLSVRQIKGDFLGQLITVRGIITRVSDVKPAVEVIAYTCDQCGYEVFQEVNSRTFTPLSECTSEECSQNQTKGQLFMSTRASKFSAFQECKIQELSQQVPVGHIPRSLNIHVNGTLVRSLSPGDIVDVTGIFLPAPYTGFKALKAGLLTETYLEAQFVRQHKKKFASFSLTSDVEERVMELITSGDVYNRLAKSIAPEIYGNLDVKKALLLLLVGGVDKRVGDGMKIRGDINVCLMGDPGVAKSQLLKAICKISPRGVYTTGKGSSGVGLTAAVMKDPVTDEMILEGGALVLADNGICCIDEFDKMDESDRTAIHEVMEQQTISISKAGINTTLNARTSILAAANPLYGRYNPRLSPLDNINLPAALLSRFDILFLMLDIPSRDDDEKLAEHVTYVHMHNKQPDLDFTPVEPSKMREYIAYAKTKRPVMSEAVNDYVVQAYIRLRQDSKREMDSKFSFGQATPRTLLGIIRLSQALAKLRLADMVDIDDVEEALRLVRVSKESLYQETNKSKEDESPTTKIFTIIKKMLQETGKNTLSYENIVKTVRLRGFTMLQLSNCIQEYSYLNVWHLINEGNTLKFVDDGTMDTDQEDSLVSTPKLAPQTTASANVSAQDSDIDLQDA", "notes": "Mcm7, S. cerevisiae; Subunit of m4 and m7, written alone for the contacts seen in the structures; also called Mcm7 subunit of MCM; source: S. cerevisiae strains yGC216 and yGC226, purified as a subunit of MCM-Cdt1"}},
  "key": {"Mcm4": {"target": "T1, Mcm4 (Saccharomyces cerevisiae, UniProt P30665 1-933)", "T1 construct": "Mcm4, S. cerevisiae; Subunit of m4 and m7, written alone for the contacts seen in the structures; also called Mcm4 subunit of MCM; source: S. cerevisiae strains yGC216 and yGC226, purified as a subunit of MCM-Cdt1", "T1 sequence": "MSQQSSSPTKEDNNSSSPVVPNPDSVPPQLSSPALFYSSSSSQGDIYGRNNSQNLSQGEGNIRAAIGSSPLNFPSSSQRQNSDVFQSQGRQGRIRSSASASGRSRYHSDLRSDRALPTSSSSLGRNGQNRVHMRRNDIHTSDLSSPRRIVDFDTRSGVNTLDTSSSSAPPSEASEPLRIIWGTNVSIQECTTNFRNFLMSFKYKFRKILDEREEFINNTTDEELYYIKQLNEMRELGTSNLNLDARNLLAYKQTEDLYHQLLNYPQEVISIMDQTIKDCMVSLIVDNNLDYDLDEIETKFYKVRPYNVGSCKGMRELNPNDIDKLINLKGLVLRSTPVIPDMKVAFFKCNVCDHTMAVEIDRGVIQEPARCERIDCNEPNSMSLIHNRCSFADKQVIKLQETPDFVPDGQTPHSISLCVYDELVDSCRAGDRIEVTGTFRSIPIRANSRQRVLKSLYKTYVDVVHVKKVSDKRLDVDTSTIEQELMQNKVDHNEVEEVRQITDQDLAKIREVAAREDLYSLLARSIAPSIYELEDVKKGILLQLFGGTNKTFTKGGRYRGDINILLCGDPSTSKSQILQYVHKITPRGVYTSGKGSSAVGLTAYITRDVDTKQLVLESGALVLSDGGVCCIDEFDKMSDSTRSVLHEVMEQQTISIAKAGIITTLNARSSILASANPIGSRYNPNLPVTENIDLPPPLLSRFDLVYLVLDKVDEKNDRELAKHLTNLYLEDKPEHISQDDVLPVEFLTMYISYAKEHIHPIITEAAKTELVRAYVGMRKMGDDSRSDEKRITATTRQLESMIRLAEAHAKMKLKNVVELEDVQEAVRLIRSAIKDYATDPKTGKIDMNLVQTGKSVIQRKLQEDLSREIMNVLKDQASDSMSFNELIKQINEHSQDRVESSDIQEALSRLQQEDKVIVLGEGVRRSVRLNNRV", "experiment": "cryo-EM structure; OC1M^Mcm5RA: 30 nM MH-ARS1-MH DNA, 60 nM ORC, 90 nM Cdc6, 60 nM MCM-Cdt1 (Mcm5 R549A), 2 mM ATP; same buffer; 30 °C, 30 min; conformer 1 at 3.7 Å, conformer 2 at 3.4 Å (Orc1 ATPase domain seen only in conformer 1)", "settings": "both partners purified"}, "Orc1": {"target": "T2, Orc1 (Saccharomyces cerevisiae, UniProt P54784 1-914)", "T2 construct": "Orc1, S. cerevisiae; Subunit of m1, written alone for the contacts seen in the structures; also called Orc1 subunit of ORC; source: S. cerevisiae strain ySD-ORC, purified as a subunit of ORC", "T2 sequence": "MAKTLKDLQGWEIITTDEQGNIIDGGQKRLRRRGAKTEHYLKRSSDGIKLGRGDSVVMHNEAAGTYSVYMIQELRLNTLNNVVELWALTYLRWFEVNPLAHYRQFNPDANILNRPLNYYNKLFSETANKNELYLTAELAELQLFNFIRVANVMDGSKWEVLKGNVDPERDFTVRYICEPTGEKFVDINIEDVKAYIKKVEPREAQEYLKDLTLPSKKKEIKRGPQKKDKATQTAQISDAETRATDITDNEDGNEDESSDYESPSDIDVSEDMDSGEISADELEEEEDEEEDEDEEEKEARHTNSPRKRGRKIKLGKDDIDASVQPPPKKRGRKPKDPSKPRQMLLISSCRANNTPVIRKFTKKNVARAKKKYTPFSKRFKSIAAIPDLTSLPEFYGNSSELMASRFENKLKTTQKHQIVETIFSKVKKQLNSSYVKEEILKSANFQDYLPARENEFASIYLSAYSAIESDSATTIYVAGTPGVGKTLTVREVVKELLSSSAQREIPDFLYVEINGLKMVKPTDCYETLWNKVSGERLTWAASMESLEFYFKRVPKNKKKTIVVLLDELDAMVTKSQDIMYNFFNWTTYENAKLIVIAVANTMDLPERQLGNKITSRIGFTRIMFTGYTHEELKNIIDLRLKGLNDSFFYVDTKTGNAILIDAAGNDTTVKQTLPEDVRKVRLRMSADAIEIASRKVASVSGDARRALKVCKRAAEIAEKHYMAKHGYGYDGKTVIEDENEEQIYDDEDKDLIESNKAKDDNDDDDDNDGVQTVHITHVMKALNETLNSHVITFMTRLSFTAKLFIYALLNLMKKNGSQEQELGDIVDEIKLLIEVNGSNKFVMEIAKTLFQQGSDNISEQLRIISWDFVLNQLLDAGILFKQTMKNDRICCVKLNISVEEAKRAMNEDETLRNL", "experiment": "cryo-EM structure; OCCM^Mcm2RA: 30 nM MH-ARS1-MH DNA, 60 nM ORC, 90 nM Cdc6, 60 nM MCM-Cdt1 (Mcm2 R676A), 3 mM ATP; 25 mM HEPES pH 7.6, 100 mM potassium chloride, 10 mM magnesium acetate, 1 mM DTT; 30 °C, 30 min; 3.3 Å consensus, 3.2 Å local refinements", "settings": "both partners purified"}},
  "data": [
    {"binder": "B1", "values": [
      {"measurement": "binding result", "setting": "Mcm4", "result": "binds"},
      {"measurement": "binding result", "setting": "Orc1", "result": "binds"}
    ]}
  ]
}
